Experimental data as given in US20210340196A1 (UNIVERSIDAD DE ZARAGOZA, published 2021).

Target: T1, carcinoembryonic antigen (CEA), purified antigen (UniProt P06731 35-685)
T1 construct: Purified CEA coated on ELISA wells; also called CEA antigen
T1 sequence (looked up): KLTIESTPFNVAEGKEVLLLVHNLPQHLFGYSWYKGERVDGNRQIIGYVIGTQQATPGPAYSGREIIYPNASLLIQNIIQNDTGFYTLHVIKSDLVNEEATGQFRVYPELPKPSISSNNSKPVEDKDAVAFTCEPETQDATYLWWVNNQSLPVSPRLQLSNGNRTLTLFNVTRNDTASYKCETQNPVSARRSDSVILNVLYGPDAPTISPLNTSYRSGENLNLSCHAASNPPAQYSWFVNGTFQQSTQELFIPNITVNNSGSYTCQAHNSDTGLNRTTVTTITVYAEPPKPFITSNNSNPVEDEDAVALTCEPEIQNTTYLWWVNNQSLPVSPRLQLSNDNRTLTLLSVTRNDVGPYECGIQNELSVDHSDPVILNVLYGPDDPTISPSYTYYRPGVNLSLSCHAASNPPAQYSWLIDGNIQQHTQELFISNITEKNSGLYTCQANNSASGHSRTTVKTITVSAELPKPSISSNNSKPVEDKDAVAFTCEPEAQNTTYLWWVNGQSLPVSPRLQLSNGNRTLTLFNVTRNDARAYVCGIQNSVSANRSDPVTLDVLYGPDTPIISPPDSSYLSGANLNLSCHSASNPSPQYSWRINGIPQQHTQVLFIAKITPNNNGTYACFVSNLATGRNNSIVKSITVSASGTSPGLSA
Assay: ELISA, 200 ng CEA coated per well, 500 ng scFv MFE23 as positive control, anti-His tag antibody + HRP anti-mouse IgG, OPD read at 492 nm
Method: FIG. 7. ELISA performed with 200 ng of CEA per well (left overnight at 4° C.), PBS (negative control), 500 ng of recombinant scFv MFE23 (positive control), and the P. pastoris supernatant transformed with pPICZαC-Chimera were then added after inducing expression with methanol. To develop the binding of scFvs to the CEA antigen, an anti-histidine tag antibody and a peroxidase-conjugated goat anti-mouse IgG secondary antibody were used. The peroxidase substrate was OPD, producing a yellow-orange product that can be detected at 492 nm.
An ELISA was performed using 200 ng of CEA per well, which was incubated overnight at 4° C., PBS (negative control), 500 ng of the recombinant scFv MFE23 (positive control), and the P. pastoris supernatant transformed with pPICZαC-Chimera after inducing expression with methanol were then added. To develop the binding of scFvs to the CEA antigen, an anti-histidine tag antibody and a peroxidase-conjugated goat anti-mouse IgG secondary antibody were used. The peroxidase substrate was OPD, producing a yellow-orange product that can be detected at 492 nm.

B1: recombinant scFv MFE23 (scFv)
scFv: QVKLQQSGAELVRSGTSVKLSCTASGFNIKDSYMHWLRQGPEQGLEWIGWIDPENGDTEYAPKFQGKATFTTDTSSNTAYLQLSSLTSEDTAVYYCNEGTPTGPYYFDYWGQGTTVTVSSGGGGSGGGGSGGGGSENVLTQSPAIMSASPGEKVTITCSASSSVSYMHWFQQKPGTSPKLWIYSTSNLASGVPARFSGSGSGTSYSLTISRMEAEDAATYYCQQRSSYPLTFGAGTKLELKR
notes: Positive control in the ELISA, 500 ng; also called anti-CEA scFv MFE23
  binding result: binds
